The values below come from patent publication US20120141476A1 (MacroGenics, published 2012).

In test [1] the target is T1, dimeric soluble FcγRIIa-Fc (UniProt P12318 34-217).
T1 construct: also called soluble FcγIIA; FcγIIA
T1 sequence (looked up): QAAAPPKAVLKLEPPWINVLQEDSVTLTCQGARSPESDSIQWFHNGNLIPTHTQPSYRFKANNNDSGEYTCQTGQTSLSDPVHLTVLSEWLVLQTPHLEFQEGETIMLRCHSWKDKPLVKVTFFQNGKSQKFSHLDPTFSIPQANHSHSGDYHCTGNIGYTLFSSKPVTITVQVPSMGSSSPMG
Put plainly: ELISA, 100 ng/well soluble FcγIIA coated. The protocol: Protocal for ELISA assay: 100 ng/well of soluble FcγIIA in carbonate buffer was coated on 96-well Maxisorp plates at 4° C. overnight. A serial of two-fold dilution of conditioned medium of Ch2B6; hu2B6HC/hu2B6LC; hu2B6HC/hu2B6LC(N50Y); hu2B6HC/hu2B6LC(N50Y,V51A); and purified IV.3 starting from 25 ng/well was added to the each well. The plate was incubated at room temperature for 1 hour. The binding was detected by HRP conjugated F(ab′)2 goat anti human IgG F(ab′)2 specific secondary antibody for Ch2B6 and all hu2B6 samples and HRP conjugated F(ab′)2 goat anti mouse IgG (H+L) secondary antibody for IV.3. After incubation with the secondary antibody for approximately 45 minutes, the plate was developed using a TMB substrate. After 5 mins incubation, the reaction was stopped by 1% H₂SO₄. The OD₄₅₀ nm was ready by SOFTmax program. Between each step, the plates were washed 3 times with PBS/0.1% Tween 20. The plates were blocked by 0.5% BSA in PBS/0.1% Tween 20 for 30 mins at room temperature before adding the serial diluted antibodies.

In test [2] the target is T2, FcγRIIB (CD32B) on Daudi cells (human, UniProt P31994 43-310).
T2 construct: whole, on cells; also called this human B cell tumor line
T2 sequence (looked up): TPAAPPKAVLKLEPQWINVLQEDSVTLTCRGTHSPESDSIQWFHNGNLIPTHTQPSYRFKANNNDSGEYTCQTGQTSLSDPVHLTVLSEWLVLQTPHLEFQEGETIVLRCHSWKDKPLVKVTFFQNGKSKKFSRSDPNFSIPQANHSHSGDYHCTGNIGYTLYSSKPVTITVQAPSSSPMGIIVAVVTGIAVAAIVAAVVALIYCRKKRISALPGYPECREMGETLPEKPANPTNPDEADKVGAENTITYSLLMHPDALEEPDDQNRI
The test can be described thus: FACS on Daudi cells, antibody at 0.1 µg/ml. Here is the method:
(§1) Protocol for FACS analysis. Approximately 10⁶ Daudi cells were used for each antibody staining Cells were washed once with PBS. Primary antibodies (Ch2B6, Hu2B6Hc/ch2B6Lc, human IgG1 ) were diluted into 0.5, 0.1, 0.02 μg/mL in PBS/1% BSA and 100 μL of diluted antibodies was transferred to the cells. After 30 mins incubation at 4° C., cells were washed once with 1 mL PBS/1% BSA. PE conjugated F(ab′)₂ fragment of goat anti human IgG Fc specific (Jackson ImmunoReseach, Inc.) was used as secondary antibody at 1:1000 dilution. After 30 mins incubation at 4° C., cells were washed once with 1 mL PBS/1% BSA. The cells were then resuspended in 500 μL of PBS/1% BSA and subjected to be FACS analysis.
(§2) Transfections of HEK-293 cells were performed using the following combinations: hu2B6HC/hu2B6LC; hu2B6HC/hu2B6LC(N50Y); hu2B6HC/hu2B6LC(N50Y,V51A); ch2B6HC/ch2B6LC. After three days in culture the amount of human IgG expressed was quantitated by an ELISA assay, using the method described above. Binding to dimeric soluble FcγRIIb-Fc was determined by ELISA assay. […] FACS analysis was then performed to measure the binding of the mAbs to Daudi cells (Table 8).

Test [3] has as its target T2, FcγRIIB (CD32B) on Daudi cells. Put plainly: FACS on Daudi cells, antibody at 0.5 µg/ml. Here is the method: as §1, §2
Test [4] has the same target. Put plainly: FACS on Daudi cells, antibody at 0.02 µg/ml. Here is the method: as §1, §2

Substitutions are numbered along the chain they refer to. Names and notes keep the numbering of the source.

B1: hu2B6HC/hu2B6LC(N50Y) (antibody, V domains shown)
VH: QVQLVQSGAEVKKPGASVKVSCKASGYTFTNYWIHWVRQAPGQGLEWMGVIDPSDTYPNYNKKFKGRVTMTTDTSTSTAYMELRSLRSDDTAVYYCARNGDSDYYSGMDYWGQGTTVTVSS
VL: EIVLTQSPDFQSVTPKEKVTITCRTSQSIGTNIHWYQQKPDQSPKLLIKYVSESISGVPSRFSGSGSGTDFTLTINSLEAEDAATYYCQQSNTWPFTFGGGTKVEIK
notes: Human C-Gamma1 and C-kappa constant regions; also called Hu2B6N50Y; Hu2B6 N50Y
As for B1, the binding result in test [1] is listed as “no binding”.

B2: hu2B6HC/hu2B6LC mAb (humanized 2B6) (antibody, V domains shown)
VH: B1 VH
VL: B1 VL with Y50N
notes: Human C-Gamma1 and C-kappa constant regions
B2: the binding result in test [1] was “no binding”.

B3: hu2B6HC/hu2B6LC(N50Y,V51A) (antibody, V domains shown)
VH: B1 VH
VL: B1 VL with V51A
notes: Human C-Gamma1 and C-kappa constant regions; also called Hu2B6N50Y,V51A; Hu2B6N50Y, V51A
B3: in test [1], the binding result was “no binding”.

B4: ch2B6HC/ch2B6LC mAb (chimeric 2B6) (antibody, V domains shown)
VH: QVQLQQPVTELVRPGASVMLSCKASDYPFTNYWIHWVKQRPGQGLEWIGVIDPSDTYPNYNKKFKGKATLTVVVSSSTAYMQLSSLTSDDSAVYYCARNGDSDYYSGMDYWGQGTSVTVSS
VL: DILLTQSPAILSVSPGERVSFSCRTSQSIGTNIHWYQQRTNGFPRLLIKNVSESISGIPSRFSGSGSGTDFILSINSVESEDIADYYCQQSNTWPFTFGGGTKLEIK
notes: Tested as conditioned medium of transfected HEK-293 cells; also called ch2B6 mAb; chimeric mAb
As to B4, the figures for the “Mean Fluorescence” value in test [2], in test [3] and in test [4] were 141, 193 and 45.6, respectively.
